Source: publication PMC9063845

Tests used:
Assay in all cases: SEC; preparative HiLoad 16/600 Superdex 200 pg (120 ml), 20 mM HEPES, 50 mM NaCl pH 7.5; elution at ~85 ml compared with protein standards (~60 kDa)
[1] = target: amilCP (Acropora millepora)
[2] = target: eforRed (Echinopora forsaliana)
[3] = target: gfasPurple (Galaxea fascicularis)
[4] = target: spisPink (Stylophora pistillata)

With amilCP (natural protein) as the substance, how does the stoichiometry N [1] read?
Its stoichiometry N is 2.

With eforRed (natural protein) as the substance, how does the stoichiometry N [2] read?
Its stoichiometry N is 2.

Which stoichiometry N [3] does the source give for gfasPurple (natural protein) here?
Its stoichiometry N is 2.

spisPink (natural protein) was tested. Which stoichiometry N [4] did it give?
The stoichiometry N was 2.
